Here are results for one molecule from PMC2959155 (Journal of immunology (Baltimore, Md. : 1950), 2008).

In experiment [1] the target is T1, recombinant His-tagged 6xEMPD (6 times repeated EMPD of mouse mIgE) (Mus musculus (mouse), membrane IgE …).
T1 chain: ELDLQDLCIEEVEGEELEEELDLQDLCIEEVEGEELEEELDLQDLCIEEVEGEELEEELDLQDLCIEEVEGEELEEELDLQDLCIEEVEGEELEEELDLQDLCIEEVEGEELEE
Description: ELISA.

For experiment [2], the target named is T1, recombinant His-tagged 6xEMPD (6 times …). Description: SPR.

B1: mAbA9, mouse monoclonal anti-mouse EMPD antibody of γ1 isotype (antibody, V domains shown)
VH: EVQLVESGGGLVQPGGSLRLSCATSGFTFTDYYMTWVRQPPGKALEWLGFIRNKANGYTTEYSASVKGRFTVSRDNSQSILYLQMNTLRAEDSATYYCASPIYYGSPSWLWTYWGQGTSVTVSS
VL: QIVLTQSPAIMAASLGQKVTMTCSASSSVSSSYLHWYQQKSGASPKPLIHRTSNLASGVPARFSGSGSGTSYSLTISSVEAEDDATYYCQQWSGYPLTFGAGTKLELK
B1: the “% competition at 10-fold molar excess of 6xEMPD” value in experiment [1] was determined as 43%. In experiment [2], the Kd stood at 7.4 nM.
